This data set addresses T1, DRL1 (Drooping leaf1, YABBY C2C2) (Zea mays, UniProt A0A804LG43 A0A804LG43:1-207).
T1 sequence: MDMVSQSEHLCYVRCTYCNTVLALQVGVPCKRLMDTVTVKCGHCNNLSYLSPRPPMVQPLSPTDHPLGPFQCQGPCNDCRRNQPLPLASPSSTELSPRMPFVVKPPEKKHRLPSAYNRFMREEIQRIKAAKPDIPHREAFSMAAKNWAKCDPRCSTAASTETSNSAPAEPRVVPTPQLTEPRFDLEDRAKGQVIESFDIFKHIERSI
Kind of data set: EMSA; room temperature 20 min; band slightly brighter than W22 probe; competed by unlabeled probe. To be noted: tags: His fusion (PET32a, E. coli Rosetta, nickel beads); label: biotin. How it is done: EMSA (electrophoretic mobility shift assay) was carried out to validate the above speculation. First of all, biotin-labeled EMSA probes (UPA2-NIL^W22 biotin probes: UPA2-NIL^W22-F, UPA2-NIL^W22-R; UPA2-NIL^W22 competitive probe: UPA2-NIL^W22-com-F, UPA2-NIL^W22-com-R; UPA2-NIL⁸⁷⁵⁹ biotin probes: UPA2-NIL⁸⁷⁵⁹-F, UPA2-NIL⁸⁷⁵⁹-R; UPA2-NIL⁸⁷⁵⁹ competitive probe: UPA2-NIL⁸⁷⁵⁹-com-F, UPA2-NIL⁸⁷⁵⁹-com-R) were designed for the sequences of UPA2-NIL^W22 and UPA2-NIL⁸⁷⁵⁹ respectively. The probe included a C2C2-binding motif and upstream and downstream flanking sequences (each 22 bp). In the meantime, the corresponding sequences that were not labeled with biotin were synthesized as competitive probes. Next, the DRL1 CDS region was recombined onto a PET32a prokaryotic expression vector by a homologous recombination method to construct an expression vector of DRL1-His fusion proteins and it was introduced into the expression strain Rosetta to induce the expression of the DRL1-His fusion proteins. Finally, the DRL1-His fusion proteins were obtained through purification using Nickel beads. […]

B1: UPA2-NIL8759 probe (dsDNA)
DNA 1: AACTGCGCATGCGCGCGCTGAGTGTGGTCCTTCTCTTTTAATTACTACTG
DNA 2: CAGTAGTAATTAAAAGAGAAGGACCACACTCAGCGCGCGCATGCGCAGTT
On to B1, for which the binding result is on record as “binds”.

These data come from patent US20230175000, “MAIZE GENE ZMRAVL1 AND FUNCTIONAL SITE AND USE THEREOF” (CHINA AGRICULTURAL UNIVERSITY, published 2023).
